This data set in a line: protein stability index of a GFP-peptide fusion (GPS, HEK-293T) (PSI 1-6); higher = more stable.
[1] abbreviates: treatment: DMSO, c terminus: a fixed tail appended.
The mark [2] stands for this setting: treatment: MLN4924 1 uM, 8 h, c terminus: a fixed tail appended.

± gives the standard deviation.
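Note: 24-mer peptide tiles fused after GFP, lentivirally expressed, FACS-sorted into six equal bins by GFP/DsRed ratio, decoded by Illumina sequencing, PSI is the read-weighted mean bin number.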

For FRGRRDVSGSWERDQQVEAAQRAL [RETREG3], the protein stability index runs as follows: under setting [1], 4.48 ± 0.27; under setting [2], 4.28 ± 0.23.
The corresponding values for FRIIDSDHSGFISLDEFRQTWKLF [PPEF2] are 2.97 ± 1 and 2.37 ± 0.48.
The corresponding values for FRNLVADRVLNYTSWSQHCPWEPQ [SPAG8] are 2.21 ± 0.21 and 2.36 ± 0.23.
Turning to FRPEMKKHSWCLKRKNPPNERTV [N4BP2L1], the protein stability index runs as follows: (treatment: DMSO, c terminus: native) 3.06 ± 0.2; (treatment: MLN4924 1 uM, 8 h, c terminus: native) 3.04 ± 0.68.
As to FRQFGYQDSPGPHEALSRLWELCH [ZNF396], the protein stability index is 2.28 ± 0.28 under setting [1] and 2.31 ± 0.24 under setting [2].
The corresponding values for FSEPSFITESYQTLHPISSEELLS [ETS1] are 2.77 ± 0.4 and 3.28 ± 0.41.
The corresponding values for FSINSRLASSLGNLNAATDDPENK [CDC14A] are 5.08 ± 0.26 and 5.1 ± 0.39.
Consider FSRAGISEAQLTDAETSKLIYDFI [WAS], for which the protein stability index under setting [1] was determined as 2.57 ± 0.2 and the protein stability index under setting [2] worked out at 2.95 ± 0.29.
The corresponding values for FTFPGMSLDKRQGEGLRIYWGSPE [TPRG1] are 2.25 ± 0.35 and 2.38 ± 0.53.
The corresponding values for FVTGNCLEISPDCSQYDRVYCGAG [PCMTD2] are 2.43 ± 0.19 and 2.33 ± 0.14.
The corresponding values for FWDFAQGPLLDSLYWTKWYNNQSL [PKD2L1] are 2.3 ± 0.77 and 2.76 ± 0.94.
For FWKKYRTFWKEDKAFWKEDNALWE [CCDC70], the protein stability index under setting [1] is 2.54 ± 0.49 and the protein stability index under setting [2] was determined as 2.26 ± 0.36.
The corresponding values for FYDKQLKVLLSGATFLVTFGNSEK [ZFYVE21] are 2.45 ± 0.67 and 2.54 ± 0.54.
Take GAGAEESELQAYIAQCQDSPTSGK [MCOLN1]: the protein stability index by setting is: under setting [1], 5.41 ± 0.14; under setting [2], 5.45 ± 0.17.
Regarding GAGAGAPGGGRLLLSTSLDAKDEL [INTS3], the protein stability index is, setting by setting: under setting [1], 5.04 ± 0.27; under setting [2], 5.08 ± 0.068.
As for GAGEGAAASPELSALEEAFRRFAV [TPPP], the protein stability index runs as follows: under setting [1], 3.58 ± 0.58; under setting [2], 3.74 ± 0.44.
The corresponding values for GAGRRRRAGGPPRPMSEPGAGAGS [SMAD6] are 5.22 ± 0.41 and 5.21 ± 0.14.
Regarding GAHKDCQVAPLTHVFQRQKSELSD [TRIM55], the protein stability index by setting is: under setting [1], 4.73 ± 0.34; under setting [2], 4.83 ± 0.16.
The corresponding values for GAKMTERGSVARPTQGPETPRSPE [PXN] are 5.59 ± 0.13 and 5.38 ± 0.26.
As for GASFTQKGNLLRHIKLHSGEKPFK [IKZF1], the protein stability index is, setting by setting: under setting [1], 3.77 ± 0.23; under setting [2], 3.72 ± 0.28.
For the sequence GCQVSPEGYAHLTHLLMGLASGRI [HDAC6], the protein stability index stood at 2.46 ± 0.89 under setting [1] and 2.57 ± 0.53 under setting [2].
The corresponding values for GCSAVLSGGSSSSFRAGSKGLSGG [KRT71] are 3.45 ± 0.14 and 3.48 ± 0.2.
The corresponding values for GDSDSALDSVSPCPSSPKQIHLDV [DLC1] are 4.8 ± 0.37 and 4.66 ± 0.35.
The corresponding values for GEKPFECRQRLIFEQTPALTKHEW [ZNF8] are 3.04 ± 0.85 and 2.93 ± 0.18.
With GEKPYECQDCGRAFNQNSSLGRHK [ZNF8], the protein stability index stood at 3.19 ± 0.47 under setting [1] and 3.69 ± 0.23 under setting [2].
Take GELLGEARYYLVQGLIEDCQLALQ [KCTD13]: the protein stability index amounted to 2.15 ± 0.64 under setting [1] and 2.3 ± 0.28 under setting [2].
The corresponding values for GELLLDVAWHPVRPIIASISSGVV [RBBP5] are 2.3 ± 0.54 and 2.42 ± 0.59.
Regarding GENSDGCYEHFAELDIPQSVQQNG [CLPTM1], the protein stability index turned out to be 5 ± 0.33 under setting [1] and 5.01 ± 0.32 under setting [2].
The corresponding values for GFCFFNSVAVAARHAQTISGHALR [HDAC6] are 2.25 ± 0.43 and 1.76 ± 0.28.
The corresponding values for GFPGERTYNTKVYKMFASRRKQRY [LOXL2] are 2.72 ± 0.42 and 2.98 ± 0.51.
The corresponding values for GGACPAFLPSLRPPPLTSPSHGSL [NCF4] are 3.59 ± 0.092 and 3.71 ± 0.28.
As for GGGEGKAMYIDTEGTFRPERLLAV [RAD51], the protein stability index runs as follows: under setting [1], 2.69 ± 0.32; under setting [2], 2.9 ± 0.37.
The corresponding values for GGGGGGLPISTVREVALLRRLEAF [CDK4] are 3.19 ± 0.3 and 3.23 ± 0.34.
Take GGNPFAEPSELDNPFQDPAVIQHR [SCAMP3]: the protein stability index under setting [1] was 4.67 ± 0.14 and the protein stability index under setting [2] came to 4.98 ± 0.17.
Take GHLFPPPTPIFAGGANDRWVRSVS [WSB1]: the protein stability index reads like this: under setting [1], 2.66 ± 0.18; under setting [2], 2.39 ± 0.4.
The corresponding values for GHPVGLALEAAVHVQKLSQECLKQ [TRIM14] are 3.07 ± 0.2 and 3.14 ± 0.28.
In the case of GHTPLMEAGSAGHVEVARLLLENG [ANKRD17], the protein stability index by setting is: under setting [1], 4.22 ± 0.24; under setting [2], 4.17 ± 0.24.
With GIEHAQCVPPSEFSEPSFITESYQ [ETS1], the protein stability index is 4.44 ± 0.12 under setting [1] and 4.15 ± 0.3 under setting [2].
The corresponding values for GIKTVIVNMVDVAKALNRPPTYPT [EIF5] are 2.32 ± 0.48 and 2.4 ± 0.59.
The corresponding values for GIKVQNGGIVTDTPASNHLPGWED [SLC19A2] are 4.4 ± 0.23 and 4.77 ± 0.28.
The corresponding values for GKPPTAHLDRTSVSSLSEVEEVDM [ELOA2] are 5.51 ± 0.11 and 5.41 ± 0.29.
As for GKTAASWCLHVNNWLQVSFTAKHA [FSD1], the protein stability index came out at 3.23 ± 0.46 under setting [1] and 3.09 ± 0.76 under setting [2].
The corresponding values for GLANGLQLLCPWAPLSGPQALMLP [VENTX] are 2.01 ± 0.31 and 2.1 ± 0.36.
The corresponding values for GLETGDWGGAPKEGSIWRGAQMEK [ZSWIM9] are 4.07 ± 0.3 and 4.45 ± 0.22.
The corresponding values for GLETLFSKAQELGGAGREDPGLWS [ZSWIM9] are 3.18 ± 0.5 and 3.39 ± 0.23.
In turn, GLGRPTPGLSQGPGKETLESALIA [EHMT1] came in with a protein stability index under setting [1] of 3.95 ± 0.13 and a protein stability index under setting [2] of 4.29 ± 0.22.
The corresponding values for GLKGRTLYPAVSAVWGQCQVRIRY [SPSB2] are 2.98 ± 0.77 and 2.67 ± 0.56.
As to GLLDLNNAILQLVKKYKSMKLEKE [ESRRG], the protein stability index runs as follows: under setting [1], 2.65 ± 0.14; under setting [2], 2.9 ± 0.82.
The corresponding values for GLLNDTSAPHLENSGHTIFNDPFF [KCNA4] are 4.17 ± 0.19 and 4.28 ± 0.28.
The corresponding values for GLQDTITAELVVIEDAAEPKEPAP [PALM] are 5.06 ± 0.19 and 5.1 ± 0.18.
The corresponding values for GLSAGYVDAGAEPGRSRMISQEEF [LPCAT4] are 4.47 ± 0.32 and 4.78 ± 0.23.
On to GLSPEEKEQLSNDRETQEGKPPTA [ELOA2], for which the protein stability index was found to be 5.6 ± 0.22 under setting [1] and 5.31 ± 0.46 under setting [2].
Sequence GLTFLLPFLFFGHFWQLFNALTLF [TMEM120A] showed a protein stability index under setting [1] of 2.85 ± 0.11 and a protein stability index under setting [2] of 2.63 ± 0.052.

These data come from the supplement of paper PMC10567573.
